Assay results published in the supplement of paper PMC10724198.
± gives the standard deviation of the averaged measurements.

Legend:
Saccharomyces cerevisiae [1] = test: protein stability index of tFT-peptide fusion (C-terminal peptide) (PSI (0-1 scale)); higher = more stable (slower turnover)
Protocol: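 MPS profiling in S. cerevisiae of the tFT-X12 degron library: putative degron peptides plus stable controls, 12 aa, fused to the C-terminus of a sfGFP-mCherry timer. Cells are FACS-sorted into 8 mCherry/sfGFP bins and deep-sequenced. PSI runs from 0 (unstable) to 1 (stable). Backgrounds are wild type, das1Δ and doa10Δ at 30 °C, and wild type, das1Δ, cdc34-1 and cdc53-1 at 37 °C; 2-3 technical replicates each.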

Saccharomyces cerevisiae [2] = test: as above; conditions: genetic background: wild type; temperature: 30 C
[3] = genetic background: cdc34-1, temperature: 37 C
[4] = genetic background: cdc53-1, temperature: 37 C
[5] = genetic background: das1 deletion, temperature: 30 C
[6] = genetic background: das1 deletion, temperature: 37 C
[7] = genetic background: doa10 deletion, temperature: 30 C
[8] = genetic background: wild type, temperature: 30 C
[9] = genetic background: wild type, temperature: 37 C
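Further: PSI is a weighted mean of sequencing reads over stability bins, variants kept only with over 10 reads, mCherry proximal and sfGFP distal, peptide attached via GGGS linker.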

Sequence | protein stability index (Saccharomyces cerevisiae [1]; [3]) | protein stability index (Saccharomyces cerevisiae [1]; [4]) | protein stability index (Saccharomyces cerevisiae [1]; [5]) | protein stability index (Saccharomyces cerevisiae [1]; [6]) | protein stability index (Saccharomyces cerevisiae [1]; [7]) | protein stability index (Saccharomyces cerevisiae [1]; [8]) | protein stability index (Saccharomyces cerevisiae [1]; [9]) | protein stability index (Saccharomyces cerevisiae [2])
VFGWWSVVLRVA | 0.0612 ± 0.0012 | 0.0938 ± 0.009 | 0.166 ± 0.027 | 0.249 ± 0.0082 | 0.0577 ± 0.014 | 0.0694 ± 0.017 | 0.0612 ± 0.011 | 0.109 ± 0.029
VFILGFLCLLFF | 0.403 ± 0.03 | 0.428 ± 0.014 | 0.342 ± 0.017 | 0.497 ± 0.077 | 0.362 ± 0.045 | 0.334 ± 0.024 | 0.445 ± 0.054 | 0.355 ± 0.036
VFIPFGFCLCFV | 0.408 ± 0.012 | 0.4114 ± 0.0039 | 0.317 ± 0.019 | 0.466 ± 0.0087 | 0.318 ± 0.015 | 0.295 ± 0.017 | 0.4401 ± 0.0027 | 0.373 ± 0.0028
VFLCFSWHFFLF | 0.4543 ± 0.0039 | 0.591 ± 0.035 | 0.411 ± 0.037 | 0.559 ± 0.036 | 0.297 ± 0.0049 | 0.304 ± 0.029 | 0.467 ± 0.011 | 0.405 ± 0.012
VFLVGFRVTLDS | 0.267 ± 0.035 | 0.289 ± 0.011 | 0.219 ± 0.025 | 0.404 ± 0.018 | 0.189 ± 0.018 | 0.215 ± 0.033 | 0.419 ± 0.0069 | 0.295 ± 0.0062
VFSFWVLCEVSV | 0.0333 ± 0.0097 | 0.0546 ± 0.015 | 0.0315 ± 0.0099 | 0.0841 ± 0.013 | 0.0219 ± 0.0031 | 0.0221 ± 0.0057 | 0.072 ± 0.02 | 0.04525 ± 0.0004
VFVFTFSLSFYC | 0.223 ± 0.031 | 0.326 ± 0.0073 | 0.25 ± 0.028 | 0.356 ± 0.019 | 0.257 ± 0.02 | 0.274 ± 0.018 | 0.3241 ± 0.0021 | 0.3465 ± 0.0031
VFVRDFLVSIVV | 0.0474 ± 0.014 | 0.0563 ± 0.0023 | 0.174 ± 0.025 | 0.196 ± 0.0061 | 0.139 ± 0.0096 | 0.164 ± 0.022 | 0.166 ± 0.011 | 0.257 ± 0.014
VFWVLVSFLFYV | 0.339 ± 0.011 | 0.406 ± 0.012 | 0.307 ± 0.028 | 0.4496 ± 0.0013 | 0.281 ± 0.014 | 0.3 ± 0.018 | 0.4059 ± 0.0036 | 0.346 ± 0.023
VFWVVFRALVGD | 0.191 ± 0.015 | 0.29497 ± 0.00028 | 0.217 ± 0.018 | 0.269 ± 0.02 | 0.222 ± 0.013 | 0.212 ± 0.0029 | 0.26 ± 0.0051 | 0.233 ± 0.022
VGAGVFAWLWVA | 0.533 ± 0.02 | 0.664 ± 0.016 | 0.59 ± 0.016 | 0.7101 ± 0.001 | 0.128 ± 0.025 | 0.145 ± 0.024 | 0.135 ± 0.0078 | 0.199 ± 0.024
VGAYSVVYVVFS | 0.481 ± 0.026 | 0.517 ± 0.011 | 0.322 ± 0.026 | 0.5467 ± 0.00081 | 0.272 ± 0.0067 | 0.318 ± 0.025 | 0.529 ± 0.0059 | 0.433 ± 0.036
VGVLWALIVGVR | 0.167 ± 0.011 | 0.226 ± 0.02 | 0.191 ± 0.035 | 0.36 ± 0.0087 | 0.159 ± 0.0094 | 0.18 ± 0.012 | 0.289 ± 0.043 | 0.251 ± 0.035
VGVYVWRGVLWA | 0.277 ± 0.025 | 0.402 ± 0.035 | 0.257 ± 0.024 | 0.444 ± 0.0077 | 0.184 ± 0.0022 | 0.218 ± 0.028 | 0.397 ± 0.024 | 0.296 ± 0.044
VHHAFLPYTLVR | 0.502 ± 0.021 | 0.57 ± 0.011 | 0.375 ± 0.028 | 0.591 ± 0.017 | 0.361 ± 0.011 | 0.407 ± 0.019 | 0.5709 ± 0.0043 | 0.485 ± 0.01
